Test results from paper PMC3880548 (Biochemistry, 2012).

B1: Shewanella oneidensis cytochrome c peroxidase, wild type (enzyme)
chain: AEPIEVITPAKITEPEKVELGKMLFFEPRLSKSGFISCNSCHNLSTGGVDALPTSIGHHWQEGPINSPTVLNADFMLAQFWDGRASNLKEQAAGPIANPKEMGFTHELATETIASMPAYRARFAKVYGDEKVDIDRLTDAIAAFEKTLVTPNSPFDQYLLGKQDAISGDAKAGYQLFKDKGCVSCHNGPAVGGTMFMKMGLIKPFHTNNPAEGRKGVTGKDADKFVFKVPTLRNIELTYPYFHDGSVWTLEEAVNTMADIQLGQKLTEKETKEMVAFLNSLTGEQPQISLPILPPSNKETPRPVPFATGAK
B2: Shewanella oneidensis cytochrome c peroxidase E321K charge reversal mutant (enzyme)
chain: AEPIEVITPAKITEPEKVELGKMLFFEPRLSKSGFISCNSCHNLSTGGVDALPTSIGHHWQEGPINSPTVLNADFMLAQFWDGRASNLKEQAAGPIANPKEMGFTHELATETIASMPAYRARFAKVYGDEKVDIDRLTDAIAAFEKTLVTPNSPFDQYLLGKQDAISGDAKAGYQLFKDKGCVSCHNGPAVGGTMFMKMGLIKPFHTNNPAEGRKGVTGKDADKFVFKVPTLRNIELTYPYFHDGSVWTLEEAVNTMADIQLGQKLTEKETKEMVAFLNSLTGEQPQISLPILPPSNKKTPRPVPFATGAK

Target: the molecule itself
Test: SEC

Protein | stoichiometry N
B1 | 2
B2 | 2
